Experiments:
Assay type in all cases: binding
[1] = Glycan microarray analysis, 9-O-acetylated AcSTn
Description: (§1) Optimized glycan arrays comprise 71 chemically synthesized and well-defined glycans, most of which comprise Neu5Ac and Neu5Gc glycan pairs.
(§2) 300 ml of epoxy blocking buffer is prepared by combining 15 ml of 2 M Tris buffer (pH 8) with 0.9 ml of 16.6 M ethanolamine and 284.1 ml of distilled water. The solution is filtered using a 0.2 μM nitrocellulose membrane. The epoxy buffer solution as well as 1 L of distilled water are pre-warmed to 50° C. Glass slides are arranged in a slide holder and quickly submerged in a staining tub with the warmed epoxy blocking buffer. Slides are incubated in the epoxy blocking buffer for 1 hour at 50° C. with periodic shaking to deactivate epoxy binding sites. Next, slides are rinsed and blocked with PBS with 1% OVA at 25° C. for one hour. Serum samples are diluted 1:1000 in PBS with 1% OVA and added to the glycan array for one hour at 25° C. After extensive washing, binding of polyclonal serum antibodies are detected by incubating glycan microarray slides with Cy3-conjugated anti-mouse IgG (Jackson Immunoresearch, West Grove, Pa.) for one hour. […]
(§3) 18D2 and 18C7 clones were expanded and binding properties of these hybridomas were determined by glycan microarray analysis according to Example 4. […] No binding to Tn antigen or other glycans was detected.

[2] = Glycan array STn specificity and anti-STn antibody group; design: key to Group: Group 1 antibodies according to the invention are antibodies capable of binding AcSTn and GcSTn; Antibodies were assigned to Group 2 based on their ability to bind STn as well as some related structures that include an O-linkage to serine or threonine; Group 3 antibodies are antibodies capable of binding STn, but may also bind a broader set of related structures; Group 4 antibodies are capable of binding to both AcSTn and GcSTn as well as the un-sialylated Tn antigen
Description: as §1
300 ml of epoxy blocking buffer is prepared by combining 15 ml of 2 M Tris buffer (pH 8) with 0.9 ml of 16.6 M ethanolamine and 284.1 ml of distilled water. The solution is filtered using a […] nitrocellulose membrane. The epoxy buffer solution as well as 1 L of distilled water are pre-warmed to 50° C. Glass slides are arranged in a slide holder and quickly submerged in a staining tub with the warmed epoxy blocking buffer. Slides are incubated in the epoxy blocking buffer for 1 hour at 50° C. with periodic shaking to deactivate epoxy binding sites. Next, slides are rinsed and blocked with PBS with 1% OVA at 25° C. for one hour. Serum samples are diluted 1:1000 in PBS with 1% OVA and added to the glycan array for one hour at 25° C. After extensive washing, binding of polyclonal serum antibodies are detected by incubating glycan microarray slides with Cy3-conjugated anti-mouse IgG (Jackson Immunoresearch, West Grove, Pa.) for one hour. Slides are then washed extensively, dried and scanned with a Genepix 4000B scanner (Laser at 100%; gain at 350; 10 μm pixels). Raw data from scanned images are extracted using the Genepix software and analysis of raw data is carried out.
Based on characterization data, anti-STn antibodies developed from Group 6 and Group 8 mice were categorized by anti-STn group number. In some cases, antibodies were assigned to Group 1. Group 1 antibodies according to the invention are antibodies capable of binding AcSTn and GcSTn. Such antibodies may have the ability to associate with a wider range of STn structures. The large oval in FIG. 1A indicates the portion of STn recognized by Group 1 antibodies. […] Also listed in the Table is the antibody Isotype for each antibody as determined by the IsoStrip mouse monoclonal antibody isotyping kit (Roche Diagnostics GmbH, Manheim, Germany).

AcSTn-PAA ELISA = conditions: 200 ng/well PAA antigen; 1:5 dilutions from 1 μM
Description: (§4) Anti-STn serum titer is determined using a murine anti-STn bovine submaxillary mucin (BSM) ELISA together with serum profiles observed by glycan microarray. 96-well plates are coated with 1 μg/well of BSM and incubated overnight at 4° C. O-acetylation of BSM antigen is removed by treating wells with 0.1 M sodium hydroxide. Specific binding to STn is determined by treatment of wells with sodium periodate. Periodate treatment destroys the C6 side chain of sialic acid; therefore antibodies raised against STn should not bind to periodate-treated wells. Wells are blocked with PBS 1% ovalbumin (OVA). Serum samples to be assayed are serially diluted in PBS 1% OVA. […] Detection of anti-STn antibodies present in serum is determined using an HRP-conjugated polyclonal goat anti-mouse IgG antibody (Jackson Immunoresearch, West Grove, Pa.). […] Optical densities are measured at 490 nm using a Spectramax microplate reader (Molecular Devices, Sunnyvale, Calif.). The serum titer is obtained by comparison of OD values with a cutoff value calculated as two standard deviations above the mean of optical density values of the negative control. […]
(§5) 18D2 and 18C7 antibodies were further characterized by ELISA comprising antigens other than BSM. […] Binding of anti-STn antibodies was detected using a goat anti-mouse IgG-HRP conjugated antibody (Jackson Immunoresearch Laboratories, West Grove, Pa.). […]

[3] = Glycan microarray analysis, AcSTn
Description: as §1, §2, §3

GcSTn-PAA ELISA = conditions: 200 ng/well PAA antigen; 1:5 dilutions from 1 μM
Description: as §4, §5

B1: 18D2: anti-STn monoclonal antibody from mouse #4436; IgG2b κ; heavy chain SEQ ID NO 1, light chains SEQ ID NO 2 and 3 (antibody, V domains shown)
VH: QVTLKESGPGILQPSQTLSLTCSFSGFSLSTSNMGIGWIRQPSGKGLEWLAHIWWHDDKYYNPSLKSRLTISKDISNNQVFLKITSVDTADTATYYCAQVPFYYGTSFDVWGTGTTVTVSS
VL 1: DIVMTQSPATLSVTPGDRVSLSCRASQSISDYLHWYQQKSHESPRLLIKYASQSISGIPSRFSGSGSGSDFTLSINSVEPEDVGVYYCQNGHSFPLTFGAGTKLELK
VL 2: QIVLTQSPAIMSASPGETVTMTCSASSSITYMHWYQQKPGTSPKRWIYDTSKLASGVPARFSGSGSGTSYSLTISSMEAEDAATYYCHQRSSYTFGGGTKLEIKR
mean fluorescence intensity, Neu5,9Ac2-α2,6-GalNAc [1]: about 4,500 | Glycan Array STn Specificity [2]: 100% | Group ([2]; assigned from flow cytometry and glycan array analysis): 1 | EC50 (AcSTn-PAA ELISA): 1.71 nM | Glycan Array AcSTn [3]: 50% | mean fluorescence intensity, AcSTn ([3]; glycan microarray): about 16,000 | EC50 (GcSTn-PAA ELISA): 1.57 nM

From US20160264684A1, “GLYCAN-INTERACTING COMPOUNDS AND METHODS OF USE” (SIAMAB THERAPEUTICS, INC., priority 2013, published 2016)
